Measured values from patent US20240034815A1 (Xencor, published 2024).
Changes are numbered by the printed parent chain. Names and notes keep the numbering of the source.

B1: GPC3-A variable heavy variant H1.1 (D52E) with L1 (antibody, V domains shown)
VH: QVQLVQSGAEVKKPGASVKVSCKASGYTFTDYEMHWVRQAPGQGLEWMGALEPKTGDTAYSQKFQGRVTMTADKSISTAYMELSRLRSDDTAVYYCTRFYSYTYWGQGTLVTVSS
VL: DVVMTQSPLSLPVTLGQPASISCRSSQSLVHSNGNTYLHWYQQRPGQSPRLLIYKVSNRFSGVPDRFSGSGSGTDFTLKISRVEAEDVGVYFCSQNTHVPPTFGSGTKLEIK
notes: pairing with L1 follows from the library being made on humanized GPC3-A and from pair c) of claim 53; also called [GPC3]H1.1_L1
B2: XENP 23064 H1_L1.1 (antibody, human IgG1, kappa, V domains shown)
VH: B1 VH with E52D
VL: DVVMTQSPLSLPVTLGQPASISCRSSQSLVHSQGNTYLHWYQQRPGQSPRLLIYKVSNRFSGVPDRFSGSGSGTDFTLKISRVEAEDVGVYFCSQNTHVPPTFGSGTKLEIKR
notes: VH WT, VL mutation (Kabat) N28Q; also called [GPC3]H1_L1.1; VL N28Q; copies: 2 + 2
B3: GPC3-A variable light variant L1.6 (G29T) with H1 (antibody, V domains shown)
VH: B1 VH with E52D
VL: B2 VL with Q33N, G34T
notes: pairing with H1 follows from the library being made on humanized GPC3-A and from pair l) of claim 53; also called [GPC3]H1_L1.6
B4: XENP 23061 H1.2_L1 (antibody, human IgG1, kappa, V domains shown)
VH: B1 VH with E52N
VL: B2 VL with Q33N
notes: VH mutation (Kabat) D52N, VL WT; also called [GPC3]H1.2_L1; VH D52N; copies: 2 + 2
B5: humanized GPC3-A H1_L1 (antibody, V domains shown)
VH: B1 VH with E52D
VL: B1 VL
notes: also called [GPC3]H1_L1
B6: XENP 23062 H1.3_L1 (antibody, human IgG1, kappa, V domains shown)
VH: B1 VH with E52Q
VL: B2 VL with Q33N
notes: VH mutation (Kabat) D52Q, VL WT; also called [GPC3]H1.3_L1; VH D52Q; copies: 2 + 2
B7: XENP 23072 H1_L1.9 (antibody, human IgG1, kappa, V domains shown)
VH: B1 VH with E52D
VL: B2 VL with Q33N, N35Y
notes: VH WT, VL mutation (Kabat) N30Y; also called [GPC3]H1_L1.9; VL N30Y; copies: 2 + 2
B8: XENP 23071 H1_L1.8 (antibody, human IgG1, kappa, V domains shown)
VH: B1 VH with E52D
VL: B2 VL with Q33N, N35Q
notes: VH WT, VL mutation (Kabat) N30Q; also called [GPC3]H1_L1.8; VL N30Q; copies: 2 + 2
B9: XENP 23067 H1_L1.4 (antibody, human IgG1, kappa, V domains shown)
VH: B1 VH with E52D
VL: B2 VL with Q33H
notes: VH WT, VL mutation (Kabat) N28H; also called [GPC3]H1_L1.4; VL N28H
B10: XENP 23073 H1_L1.10 (antibody, human IgG1, kappa, V domains shown)
VH: B1 VH with E52D
VL: B2 VL with Q33N, N35H
notes: VH WT, VL mutation (Kabat) N30H; also called [GPC3]H1_L1.10; VL N30H; copies: 2 + 2
B11: XENP 23070 H1_L1.7 (antibody, human IgG1, kappa, V domains shown)
VH: B1 VH with E52D
VL: B2 VL with Q33N, G34K
notes: VH WT, VL mutation (Kabat) G29K; also called [GPC3]H1_L1.7; VL G29K; copies: 2 + 2
B12: XENP 23065 H1_L1.2 (antibody, human IgG1, kappa, V domains shown)
VH: B1 VH with E52D
VL: B2 VL with Q33Y
notes: VH WT, VL mutation (Kabat) N28Y; also called [GPC3]H1_L1.2; VL N28Y; copies: 2 + 2
B13: XENP 23068 H1_L1.5 (antibody, human IgG1, kappa, V domains shown)
VH: B1 VH with E52D
VL: B2 VL with Q33N, G34A
notes: VH WT, VL mutation (Kabat) G29A; also called [GPC3]H1_L1.5; VL G29A; copies: 2 + 2
B14: XENP 23063 H1.4_L1 (antibody, human IgG1, kappa, V domains shown)
VH: B1 VH with E52S
VL: B2 VL with Q33N
notes: VH mutation (Kabat) D52S, VL WT; also called [GPC3]H1.4_L1; VH D52S; copies: 2 + 2
B15: XENP 23066 H1_L1.3 (antibody, human IgG1, kappa, V domains shown)
VH: B1 VH with E52D
VL: B2 VL with Q33S
notes: VH WT, VL mutation (Kabat) N28S; also called [GPC3]H1_L1.3; VL N28S; copies: 2 + 2
B16: XENP36941 (GPC3-A H1.1_L1.29 formatted as 1+1 Fab-scFv-Fc with CD3 High-Int #1 scFv) (bispecific antibody)
heavy: QVQLVQSGAEVKKPGASVKVSCKASGYTFTDYEMHWVRQAPGQGLEWMGALEPKTGDTAYSQKFQGRVTMTADKSISTAYMELSRLRSDDTAVYYCTRFYSYTYWGQGTLVTVSSASTKGPSVFPLAPSSKSTSGGTAALGCLVKDYFPEPVTVSWNSGALTSGVHTFPAVLQSSGLYSLSSVVTVPSSSLGTQTYICNVNHKPSDTKVDKKVEPKSCDKTHTCPPCPAPPVAGPSVFLFPPKPKDTLMISRTPEVTCVVVDVKHEDPEVKFNWYVDGVEVHNAKTKPREEEYNSTYRVVSVLTVLHQDWLNGKEYKCKVSNKALPAPIEKTISKAKGQPREPQVYTLPPSREEMTKNQVSLTCDVSGFYPSDIAVEWESDGQPENNYKTTPPVLDSDGSFFLYSKLTVDKSRWEQGDVFSCSVMHEALHNHYTQKSLSLSPGK
scFv-Fc: not shown
light: DVVMTQSPLSLPVTLGQPASISCRSSQSLVHSNGNTYLHWYQQRPGQSPRLLIYQVSNRFSGVPDRFSGSGSGTDFTLKISRVEAEDVGVYFCSQNTHVPPTFGSGTKLEIKRTVAAPSVFIFPPSDEQLKSGTASVVCLLNNFYPREAKVQWKVDNALQSGNSQESVTEQDSKDSTYSLSSTLTLSKADYEKHKVYACEVTHQGLSSPVTKSFNRGEC
notes: 1+1 Fab-scFv-Fc, human IgG1 heterodimeric backbone; treated as one molecule; also called [GPC3]H1.1_L1.29
B17: XENP35843 (GPC3-A H1.1_L1.16 formatted as 1+1 Fab-scFv-Fc with CD3 High-Int #1 scFv) (bispecific antibody)
heavy: B16 heavy
scFv-Fc: not shown
light: B16 light with N33S, Q55K, N96S
notes: 1+1 Fab-scFv-Fc, human IgG1 heterodimeric backbone; treated as one molecule; also called [GPC3]H1.1_L1.16
B18: GPC3-A H1.1_L1.6 formatted as 1+1 Fab-scFv-Fc with CD3 High-Int #1 scFv (bispecific antibody)
heavy: B16 heavy
scFv-Fc: not shown
light: B16 light with G34T, Q55K
notes: 1+1 Fab-scFv-Fc: VH-CH1-hinge-CH2-CH3 chain and VL-CL light chain form the GPC3 Fab, plus an scFv-Fc chain; also called [GPC3]H1.1_L1.6
B19: GPC3-A H1.1_L1.69 in the 1+1 Fab-scFv-Fc bsAb format (bispecific antibody)
heavy: B16 heavy
scFv-Fc: not shown
light: B16 light with G34A
notes: also called [GPC3]H1.1_L1.69
B20: GPC3-A H1.1_L1.73 in the 1+1 Fab-scFv-Fc bsAb format (bispecific antibody)
heavy: B16 heavy
scFv-Fc: not shown
light: B16 light with G34K, Q55Y
notes: also called [GPC3]H1.1_L1.73
B21: XENP36933 H1.1_L1.67 (bispecific antibody)
heavy: B16 heavy
scFv-Fc: not shown
light: B16 light with G34K, Y37W, Q55K
notes: also called [GPC3]H1.1_L1.67; VL G29K Y32W; copies: 1 + 1 + 1
B22: XENP36936 H1.1_L1.70 (bispecific antibody)
heavy: B16 heavy
scFv-Fc: not shown
light: B16 light with G34K
notes: also called [GPC3]H1.1_L1.70; VL G29K K50Q; copies: 1 + 1 + 1
B23: XENP36934 H1.1_L1.68 (bispecific antibody)
heavy: B16 heavy
scFv-Fc: not shown
light: B16 light with N33Y
notes: also called [GPC3]H1.1_L1.68; VL N28Y K50Q; copies: 1 + 1 + 1
B24: XENP34365_GPC3-A_H1.1__L1.16 (bispecific antibody)
heavy: B16 heavy
scFv-Fc: not shown
light: B16 light with N33S, Q55K, N96S
notes: Another XENP number than XENP35843, which has the same GPC3 Fv
B25: XENP21971_GPC3-A_H1_L1 (bispecific antibody)
heavy: B16 heavy with E52D
scFv-Fc: not shown
light: B16 light with Q55K
notes: the sheet prints H1_L1; copies: 1 + 1 + 1
B26: XENP34364_GPC3-A_H1.1__L1.29 (bispecific antibody)
heavy: B16 heavy
scFv-Fc: not shown
light: B16 light
notes: Another XENP number than XENP36941, which has the same GPC3 Fv
B27: XENP34368_GPC3-A_H1.1__L1.31 (bispecific antibody)
heavy: B16 heavy
scFv-Fc: not shown
light: B16 light with Q55Y
notes: Another XENP number than XENP36140, which has the same GPC3 Fv; copies: 1 + 1 + 1

target: T1, His-tagged human GPC3 (human, UniProt P51654 25-559, limits assumed); assay: binding assay not named for this figure; human GPC3 per legend paragraph 61
T1 construct: Captured on HIS1K sensors in the Octet assay; also called human GPC3 antigen; Glypican 3; not shown: His tag
T1 sequence (P51654 25-559 limits assumed): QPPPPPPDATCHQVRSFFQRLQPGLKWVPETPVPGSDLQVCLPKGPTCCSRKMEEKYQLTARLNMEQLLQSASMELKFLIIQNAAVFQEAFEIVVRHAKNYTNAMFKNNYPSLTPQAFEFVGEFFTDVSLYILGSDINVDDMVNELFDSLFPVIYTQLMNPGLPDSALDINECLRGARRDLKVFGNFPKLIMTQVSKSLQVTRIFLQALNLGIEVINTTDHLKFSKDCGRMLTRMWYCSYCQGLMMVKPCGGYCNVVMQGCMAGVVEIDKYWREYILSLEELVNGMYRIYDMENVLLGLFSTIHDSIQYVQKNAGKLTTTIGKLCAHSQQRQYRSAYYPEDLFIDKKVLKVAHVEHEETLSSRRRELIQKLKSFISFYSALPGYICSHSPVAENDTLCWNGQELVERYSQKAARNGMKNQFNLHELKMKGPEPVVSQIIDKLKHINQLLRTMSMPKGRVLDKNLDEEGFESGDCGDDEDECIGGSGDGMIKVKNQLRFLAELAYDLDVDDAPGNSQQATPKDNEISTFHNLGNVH

Row | Kd [nM] | Binder
1 | 3.92 | B1
2 | 28.2 | B2
3 | 2.85 | B3
4 | 5.81 | B4
5 | 3.17 | B5
6 | 3.13 | B6
7 | 1.37 | B7
8 | 2.35 | B8
9 | 11.7 | B9
10 | 3.38 | B10
11 | 2.22 | B11
12 | 7.43 | B12
13 | 2.09 | B13
14 | 3.62 | B14
15 | 12.7 | B15

target: T1, His-tagged human GPC3; assay: Octet (BLI); His-tagged GPC3 captured on HIS1K sensors, bsAb in solution
Description: (§1) After humanization, GPC3 binding arms were engineered with single point mutations in the variable light domain with the aim to create a ladder of GPC3 binding affinity, illustrative sequences for which are depicted in FIG. 13. 73 variable light domain variants were engineered and paired with GPC3-A H1.1 (see Example 3C for description of GPC3-A H1.1 variant). The GPC3-A variants were engineered in the 1+1 Fab-scFv-Fc bsAb format and binding for GPC3 antigen was measured using Octet, a BioLayer Interferometry (BLI)-based method. Experimental steps for Octet generally include the following: Immobilization (capture of ligand to a biosensor); Association (dipping of ligand-coated biosensors into wells containing the analyte); and Dissociation (returning of biosensors to well containing buffer). For ease of clinical development (e.g. by investigating the therapeutics in model animals), it is useful for the binding domains to be cross-reactive for cynomolgus antigen; therefore, binding to both human and cynomolgus GPC3 antigen were investigated. His-tagged human and cynomolgus GPC3 were captured on HIS1K sensors then dipped into multiple concentrations of the bispecific antibodies. The resulting dissociation constant (KD) are depicted in FIG. 23.

Row | Kd [nM] | Binder
16 | 70 | B16
17 | 100 | B17
18 | 4 | B18

target: T1, His-tagged human GPC3; assay: affinity label of the GPC3 binding domain; Octet (BLI) of Example 2
Description: as §1

Row | Kd [nM] | Binder
19 | 70 | B19
20 | 400 | B20

target: T2, His-tagged cynomolgus GPC3 (cynomolgus, UniProt A0A2K5VK50 24-558); assay: binding assay not named for this figure; Octet (BLI) is the method of Example 2B
T2 construct: Captured on HIS1K sensors in the Octet assay; also called cynomolgus GPC3 antigen; cyno GPC3; not shown: His tag
Description: as §1

Row | Kd [nM] | Binder
21 | 600 | B21
22 | 150 | B19
23 | 550 | B20
24 | 130 | B22
25 | 370 | B23

target: T1, His-tagged human GPC3; assay: as above
Description: as §1

Row | Kd [nM] | Binder
26 | 550 | B21
27 | 150 | B19
28 | 477 | B20
29 | 130 | B22
30 | 370 | B23

target: T2, His-tagged cynomolgus GPC3; assay: Octet (BLI), His-tagged GPC3 captured on HIS1K sensors, bsAb as analyte
Description: as §1

Row | Kd [nM] | Binder
31 | 100 | B24
32 | 4 | B25
33 | 73 | B26
34 | 485 | B27

target: T1, His-tagged human GPC3; assay: as above
Description: as §1

Row | Kd [nM] | Binder
35 | 93 | B24
36 | 4 | B25
37 | 70 | B26
38 | 464 | B27
